{
  "source": "paper PMC3542282",
  "about": "“P. falciparum cpn20 Is a Bona Fide Co-Chaperonin That Can Replace GroES in E. coli” (PLoS ONE, 2013)",
  "key": {"[1]": {"target": "T1, GroEL (E. coli, UniProt P0A6F5 1-548)"}, "[2]": {"target": "GroEL (E. coli) (UniProt P0A6F5)"}, "[3]": {"target": "P. falciparum cpn20 (P. falciparum)", "assay": "AUC; sedimentation equilibrium, 12,000 rpm, 20°C, 20 mM Tris-HCl pH 7.4, 200 mM NaCl, read at 280 nm after 10, 12 and 14 hrs; with sedimentation velocity at 35,000 rpm, 0.5 mg/ml"}, "[4]": {"target": "T1, GroEL", "assay": "cell-based or functional assay"}, "[5]": {"target": "the molecule itself", "assay": "AUC; sedimentation equilibrium, 12,000 rpm, 20°C, 20 mM Tris-HCl pH 7.4, 200 mM NaCl, read at 280 nm after 10, 12 and 14 hrs; with sedimentation velocity at 35,000 rpm, 0.5 mg/ml"}},
  "data": [
    {"molecule": "GroES (from UniProt P0A6F9 1-97) (natural protein)", "values": [
      {"measurement": "protomer ratio of co-chaperonin to GroEL required for half maximal refolding yield of urea-denatured MDH (10 µM GroEL, 0.16 to 20 µM co-chaperonin, 30 minutes) (co-chaperonin to GroEL protomer ratio)", "setting": "[1]", "value": 0.125}
    ]},
    {"molecule": "P. falciparum cpn20 (natural protein)", "values": [
      {"measurement": "protomer ratio of co-chaperonin to GroEL required for half maximal refolding yield of urea-denatured MDH (10 µM GroEL, 0.16 to 20 µM co-chaperonin, 30 minutes) (co-chaperonin to GroEL protomer ratio)", "setting": "[2]", "value": 0.125},
      {"measurement": "stoichiometry N (subunits in the oligomer)", "setting": "[3]", "value": 4}
    ]},
    {"molecule": "A. thaliana cpn20 (natural protein, UniProt O65282 51-253, looked up, cpn20 (20 kDa double-domain co-chaperonin of the chloroplast) from A. thaliana, At5g20720; probably the mature protein without the transit peptide (predicted tetramer 90 kDa); also called At-cpn20; At-Cpn20; source: bacterial expression, purified as previously described [23]) AASVVAPKYTSIKPLGDRVLVKIKEAEEKTLGGILLPSTAQSKPQGGEVVAVGEGRTIGKNKIDITVPTGAQIIYSKYAGTEVEFNDVKHLILKEDDIVGILETEDIKDLKPLNDRVFIKVAEAEEKTAGGLLLTETTKEKPSIGTVIAVGPGSLDEEGKITPLPVSTGSTVLYSKYAGNDFKGKDGSNYIALRASDVMAILS", "values": [
      {"measurement": "protomer ratio of co-chaperonin to GroEL required for half maximal refolding yield of urea-denatured MDH (10 µM GroEL, 0.16 to 20 µM co-chaperonin, 30 minutes)", "setting": "[4]", "value": "~0.125 co-chaperonin to GroEL protomer ratio"},
      {"measurement": "stoichiometry N", "setting": "[5]", "value": 4, "unit": "subunits in the oligomer"}
    ]}
  ]
}
